The values below come from PMC3720919, “Mcm10 Self-Association Is Mediated by an N-Terminal Coiled-Coil Domain” (PLoS ONE, 2013).

Data set [1] deals with the molecule itself. Briefly: native gel or EMSA; native gel electrophoresis (4-16% Bis-Tris) of the NTD. For orientation: A gel shift assay detects complexes by their altered migration in electrophoresis.
Data set [2] concerns the molecule itself. The data set can be described thus: crystal structure; MBP-CC fusions at 50 mg/mL, sitting drop vapor diffusion, 16°C, sodium acetate pH 4.8; molecular replacement with MBPX(E).
Data set [3] concerns the molecule itself. The data set can be described thus: AUC; sedimentation velocity, 42,000 rpm, 20°C; 0.6 mg/ml in PBS pH 7.4, 150 mM NaCl, 0.3 mM TCEP.
Data set [4] concerns the molecule itself. Briefly: AUC; sedimentation velocity, 42,000 rpm, 20°C; 0.6 mg/ml in 25 mM sodium acetate pH 4.7, 150 mM NaCl, 0.3 mM TCEP.
Data set [5] concerns the molecule itself. The data set can be described thus: SEC-MALS; Superose6 10/300 GL, 0.4 ml/min, 25 mM Tris pH 7.5, 150 mM NaCl, 2% glycerol, 2 mM BME. For orientation: In gel filtration, larger molecules generally elute earlier.

Where “and” joins values, the source holds several entries; their conditions need not be identical. Equal entries are not always repeated.

As usually defined, the stoichiometry N is a count of units in the complex or per binding partner.

B1: Mcm10-NTD (aa 1-145) L104A/L108A (2A mutant) (domain or fragment, Xenopus laevis, UniProt Q5EAW4 1-145, looked up)
chain: MEVDADLELLTSLLEENEAAERNGVVSHEASSELDEFDELFDGDEDGSYHGSDNGTEEQTIGGVEEDFTTLFGDIDDIKEEEAAASDTKKQSSSVCQEKSKDEAEDEARKMQAQMKKLQEQLQKTALAKTSSPGNPKKSPENKMV
notes: Mcm10, Xenopus laevis, residues 1-145 with L104A/L108A; also called NTD 2A
As to B1, the binding result in data set [1] is “binds”.

B2: MBP-CC 95-124 (xMcm10 residues 95-124 fused to maltose binding protein) (domain or fragment, Xenopus laevis, UniProt Q5EAW4 95-124, looked up)
chain: VCQEKSKDELEDELRKMQAQMKKLQEQLQK
notes: Mcm10, Xenopus laevis, coiled-coil region, residues 95-124 (95-122 in the final model); Trimer in the crystal; dimer in sedimentation velocity; MBPX(E) as in PDB 3H4Z; also called xMcm10-CC^95–124; wild-type CC; source: E. coli C41, purified (amylose resin, Superdex S200); not shown: MBP (mutant form MBPX(E) residues 1-367; uncleavable linker AAAMG), N-terminal, kept
For B2, in data set [2], the “stoichiometry N” value is 3.

B3: MBP-CC 95-132 (xMcm10 residues 95-132 fused to maltose binding protein) (domain or fragment, Xenopus laevis, UniProt Q5EAW4 95-132, looked up)
chain: VCQEKSKDELEDELRKMQAQMKKLQEQLQKTALAKTSS
notes: Mcm10, Xenopus laevis, coiled-coil region, residues 95-132; MBPX(E) as in PDB 3H4Z (search model); the linker in the 95-124 model is AAAMG; Calculated mass 45.1 kDa; source: E. coli C41, purified (amylose resin, Superdex S200); not shown: MBP (mutant form MBPX(E) from pMALX(E); short uncleavable linker), N-terminal, kept
With B3, the “stoichiometry N” value is 1.7 MBP-CC subunits in data set [3]; 3 and 2 in data set [4].

B4: Full-length Xenopus laevis Mcm10 (natural protein, UniProt Q5EAW4 1-860, looked up)
chain: MEVDADLELLTSLLEENEAAERNGVVSHEASSELDEFDELFDGDEDGSYHGSDNGTEEQTIGGVEEDFTTLFGDIDDIKEEEAAASDTKKQSSSVCQEKSKDELEDELRKMQAQMKKLQEQLQKTALAKTSSPGNPKKSPENKMVQSGKTSRTSPLIERKKTDSNTVAPQLTSPTVPKAKLPDAPKRKQNLSDKSPVQKKMASFLSPPEKSSARPGQSTATQPITNTLKSPVGQQYHVEKFSGLRIRKPRVSSSEMERKMNGRKLIRLAQLQNKIATEKLEEEDWVTFGVIVKKITPQSSNNGKTFSIWRLNDLKDLDKYISLFLFGDVHKEHWKTDQGTVIGLLNANPMKPKEGTDEVCLSVDNPQKVLLMGDAVDLGTCKARKKNGDPCTQMVNLNDCEYCQYHVQAQYKKVSSKRADLQSSYSGHVPKKMARGANGLRERLCQGGFHYGGVSSMAYAATLGSTTAPKKTVQSTLSNMVVRGAEAIALEARQKIAAAKNVVQTDEFKELMTLPTPGALNLKKHLSGVSPQANCGKEGQPIQSISASTLLKQQKQQMLNARKKRAEESQKRFLESTEKSEKSSTLTSSACSVFQSPKQGAEFPNAQKMATPKLGRGFAEGDDVLFFDISPPPAPKLSTSAEAKKLLAIQKLQAKGQTLAKTDPNSIKRKRGSSSEELVAQRVASHASTSPKSPDENEPAIKKHRDQLAYLESEEFQKILNAKSKHTGILKEAEVEIQEHYFDPLVKKEQLEEKMQSIREQSCRVVTCKTCKYTHFKPKETCVSENHDFHWHNGVKRFFKCPCGNRTISLDRLPKKHCSTCGLFKWERVGMLKEKTGPKLGGETLLPRGEEHGKFLNSLK
notes: Minichromosome maintenance protein 10 (Mcm10), Xenopus laevis, full length (860 residues by the construct 230-860; calculated mass 95.4 kDa); also called xMcm10; full-length Mcm10; source: Hi-5 insect cells (baculovirus, Bac-to-Bac), purified (Ni-NTA, Source Q, Superose6 gel filtration)
Take B4: the “stoichiometry N” value in data set [5] is ~2 Mcm10 subunits and ~3.4 Mcm10 subunits.
